Values joined by “and” are separate entries in the source; they are usually repeats but may differ in a detail not shown here. Identical values can stand only once.
Columns and labels:
[1] = Terpene synthase reaction product identification by GC-MS (incubation with FPP at pH 7.5); type: biochemical
Description: Partially purified protein was subsequently incubated with FPP at pH 7.5 using typical sesquiterpene synthase reaction conditions and the pentane extractable products examined by GC-MS (FIG. 7). Two compounds accounting for greater than 95% of the total reaction products dominated the GC profiles and were identified as beta-elemene (30%) and valencene (65%) on the basis of MS matches with authentic standards. The beta-elemene peak most certainly represents a thermal rearrangement product of germacrene A resulting from high temperature injection into the GC.
Small scale reactions of 50 μL were used for screening purposes and rate determinations. Reactions typically contained 200 mM Tris-HCl, pH 7.5, 40 mM MgCl2, 0.5 μCi [1-3H]FPP, 25-30 μM FPP and 160 nM enzyme. For kinetic determinations, 10 μL aliquots of FPP (giving final concentrations of 0.7-23 μM) were rapidly mixed with 40 μL of enzyme solution at room temperature (23° C.) and allowed to incubate for 1 minute. The reactions were terminated by addition of 150 μL, of a 100 mM KOH, 0.5 M EDTA stop solution. Reactions were extracted with 500 μL of hexane and an aliquot was taken for determination of radiolabeled hydrophobic product via liquid scintillation counting. Hexane extracted samples were not subject to silica chromatography prior to counting because background was minimal and synthase mutants could possibly produce reaction products containing alcohols, which would bind to silica. Kinetic constants were determined from direct fits of the Michaelis-Menton equation to the data using Graphpad Prism 2.01 software.
Initial synthase reaction products were examined by GC-MS. […] Pooled extracts were dried to 50 μL under a stream of nitrogen gas and 1 μL aliquots of this organic extract were analyzed by GC-MS using an HP-GCDplus (Hewlett-Packard, Palo Alto, Calif.) equipped with a DB-5 ms column, an injector temperature of 250° C. and the mass selective detector set to scan for ions within the range from 45 to 250 m/z. […]

[2] = pH dependence assay of reaction product specificity (GC-MS); type: biochemical
Description: Reactions to determine pH dependence were performed in glass GC-vials with 100 nM of purified enzyme, 20 mM MgCl2, 50 μM FPP (Echelon; Salt Lake City, Utah), and 100 mM buffer at various pH values; total reaction volume 500 μL. The buffers were chosen within one pH unit of the buffer's pKa (pH 5-5.5, acetate; pH 6-7, MES; pH 7.5-9, Tris; pH 9.5-10, ethanolamine; pH 10.5, CAPS). Reactions were allowed to proceed at room temperature for 30 min prior to overlaying with 500 μL of ethylacetate, vortexing for 10 sec, then direct analysis of the reaction products using an HP 6890 gas chromatograph with a 5973 mass spectrometer (Agilent Technologies, Palo Alto, Calif.) with an auto-sampler programmed to remove […] only from the organic phase. GC separations were performed on a 5%-phenyl-methylpolysiloxane column (J&M Scientific, Folsom, Calif.) of 30 m×0.25 mm i.d.×[…] with He as the carrier gas at 2 mL/min and a temperature gradient of 10° C./min from 50° C. (5-min hold) to 180° C. (4-min hold). GC/MS data was analyzed using HP-Chemstation software (version B.01.00) and integration of terpene peaks used for quantification.

[3] = partially purified protein incubated with FPP at pH 7.5, pentane extractable products, GC-MS

B1: CVS: citrus valencene synthase from Citrus paradisi, recombinant His-tagged protein expressed in E. coli, SEQ ID NO.: 4 (protein)
chain: MSSGETFRPTADFHPSLWRNHFLKGASDFKTVDHTATQERHEALKEEVRRMITDAEDKPVQKLRLIDEVQRLGVAYHFEKEIEDAILKLCPIYIDSNRADLHTVSLHFRLLRQQGIKISCDVFEKFKDDEGRFKSSLINDVQGMLSLYEAAYMAVRGEHILDEAIAFTTTHLKSLVAQDHVTPKLAEQINHALYRPLRKTLPRLEARYFMSMINSTSDHLYNKTLLNFAKLDFNILLEPHKEELNELTKWWKDLDFTTKLPYARDRLVELYFWDLGTYFEPQYAFGRKIMTQLNYILSIIDDTYDAYGTLEELSLFTEAVQRWNIEAVDMLPEYMKLIYRTLLDAFNEIEEDMAKQGRSHCVRYAKEENQKVIGAYSVQAKWFSEGYVPTIEEYMPIALTSCAYTFVITNSFLGMGDFATKEVFEWISNNPKVVKAASVICRLMDDMQGHEFEQKRGHVASAIECYTKQHGVSKEEAIKMFEEEVANAWKDINEELMMKPTVVARPLLGTILNLARAIDFIYKEDDGYTHSYLIKDQIASVLGDHVPF
modifications: His tag; Citrus X paradisi
[1]; pH 7.5, GC profiles
  beta-elemene plus valencene as share of total reaction products: greater than 95%
[1]; [3]
  beta-elemene (thermal rearrangement product of germacrene A) as share of total reaction products: 30%
  valencene as share of total reaction products: 65%
[2]; FIG. 10
  pH of transition from valencene to germacrene A as dominant reaction product: 8.0 pH and ~8.2 pH
[2]; FIG. 10, FPP substrate
  pH of optimal germacrene A biosynthesis: 8.5 pH
  pH of optimal valencene biosynthesis: 7.0 pH
[2]; at all pHs, ethylacetate extracts, GC-MS
  valencene plus germacrene A (measured as β-elemene) as share of total reaction products: greater than 95%
[2]; between pH 6.0 to 7.0
  germacrene A as reaction product: virtually no germacrene A was detected

Reference: US9534237B2, “Sesquiterpene synthase gene and protein” (University of Kentucky Research Foundation, priority 2003, dated 2017)
